# B1: recombinant PDCL3 protein: exogenous recombinant PDCL3 protein added to in vitro translation; purified GST-PDCL3 in aggregation assay (protein)
# chain: MQDPNADTEWNDILRKKGILPPKESLKELEEEAEEEQRILQQSVVKTYEDMTLEELEDHEDEFNEEDERAIEMYRRRRLAEWKATKLKNKFGEVLEISGKDYVQEVTKAGEGLWVILHLYKQGIPLCALINQHLSGLARKFPDVKFIKAISTTCIPNYPDRNLPTIFVYLEGDIKAQFIGPLVFGGMNLTRDELEWKLSESGAIMTDLEENPKKPIEDVLLSSVRRSVLMKRDSDSEGD
# modifications: left off: small tags and cut ends
# notes: exogenous recombinant PDCL3 protein added to in vitro translation; purified GST-PDCL3 in aggregation assay
# What was measured:
# VEGFR-2 = test: In vitro transcription/translation of VEGFR-2; assay type: biochemical
# Description: FIG. 1A. HEK-293 cells expressing VEGFR-2 were transfected with different concentrations of C-terminus Myc-tagged PDCL3. After 48 hours cells were lysed and whole cell lysates (WCL) were blotted for VEGFR-2, PDCL3 and Hsp70 for loading control. Quantification of premature (newly synthesized and partially glycosylated VEGFR-2 corresponding to lower molecular weight) and mature (fully glycosylated) forms of VEGFR-2 is shown. Mean results of three independent experiments are shown. *P=0.04 and […]. FIG. 1B. Human umbilical vein endothelial cells (HUVECs) were transfected with control siRNA or PDCL3-siRNA. After 48 hours cells serum-starved for overnight followed by stimulation with VEGF for 10 minutes. Cells were lysed and whole cell lysates were blotted for phospho-Y1054-VEGFR-2, total VEGFR-2, PDCL3 and Hsp70 for loading control. FIG. 1C. Thermo-induced aggregation of VEGFR-2 was measured using PSA dye as described in the materials and method section. FIG. 1D. In vitro transcription/translation of VEGFR-2 in the absence or presence of exogenous recombinant PDCL3 was performed as described in the materials and method section and schematic of the procedure is shown. FIG. 1E. In vitro translated VEGFR-2 protein in the absence or presence of exogenous recombinant PDCL3 was blotted for VEGFR-2. FIG. 1F. […]
# [1] = system: VEGFR-1, CSF-1R and PDGFRβ; test: Cell-free protein synthesis, rabbit reticulocyte transcription/translation system; assay type: biochemical; conditions: TNT Quick Coupled Transcription/Translation System
# Description: FIG. 12A. Schematic of the experiment is shown. FIG. 12B. In vitro translation and transcription was performed as recommended by the manufacturer except in one group recombinant PDCL3 was added into reaction mixture.
# To test whether PDCL3 also could increase expression of cell surface receptors in a cell-free protein synthesis system, we tested the effect of PDCL3 in rabbit reticulocyte system.
molecule,measurement,setting,value
B1,yield of in vitro translated VEGFR-2,VEGFR-2,significantly increases the yield of in vitro translated VEGFR-2
same,"expression of VEGFR-1, CSF-1R and PDGFRβ",[1],"significantly increased expression of VEGFR-1, CSF-1R and PDGFRβ"

# Source: US11406709B2, “Therapeutic and research application of PDCL3” (TRUSTEES OF BOSTON UNIVERSITY, priority 2014, dated 2022)
